Test results: article PMC10396304

Tests used:
[1] = target: MsLadC, LOV-activated diguanylate cyclase from Methylotenera sp. (Methylotenera sp.); assay: SEC-MALS; Superdex 200 Increase 10/300 GL in storage buffer, 500-1000 ug protein, dark-adapted state (non-actinic light); miniDAWN MALS detector
[2] = target: MsLadC, LOV-activated diguanylate cyclase from Methylotenera sp. (Methylotenera sp.); assay: SAXS; steady-state dark-adapted sample, BM29 ESRF, 20°C in the capillary, MsLadC 0.8 mg/ml, NT-AoLadC 0.9 mg/ml; molecular weight from Porod volume and volume of correlation
[3] = target: MsLadC, LOV-activated diguanylate cyclase from Methylotenera sp. (Methylotenera sp.); assay: SEC-MALS; Superdex 200 Increase 10/300 GL in storage buffer, 500-1000 ug protein, illuminated state (blue light 465 nm for 1 min before loading and during the whole run); miniDAWN MALS detector
[4] = target: MsLadC, LOV-activated diguanylate cyclase from Methylotenera sp. (Methylotenera sp.); assay: SAXS; steady-state light-adapted sample (blue light 465 nm), BM29 ESRF, 20°C in the capillary, MsLadC 0.8 mg/ml, NT-AoLadC 0.9 mg/ml; molecular weight from Porod volume and volume of correlation
[5] = target: AoLadC, LOV-activated diguanylate cyclase from Aquella oligotrophica (Aquella oligotrophica); assay: SEC-MALS; Superdex 200 Increase 10/300 GL in storage buffer, 500-1000 ug protein, dark-adapted state (non-actinic light); miniDAWN MALS detector
[6] = target: AoLadC, LOV-activated diguanylate cyclase from Aquella oligotrophica (Aquella oligotrophica); assay: SEC-MALS; Superdex 200 Increase 10/300 GL in storage buffer, 500-1000 ug protein, illuminated state (blue light 465 nm for 1 min before loading and during the whole run); miniDAWN MALS detector
[7] = target: SfLadC, LOV-activated diguanylate cyclase from Serratia fonticola AU-AP2C (Serratia fonticola AU-AP2C); assay: SEC-MALS; Superdex 200 Increase 10/300 GL in storage buffer, 500-1000 ug protein, dark-adapted state (non-actinic light); miniDAWN MALS detector
[8] = target: SfLadC, LOV-activated diguanylate cyclase from Serratia fonticola AU-AP2C (Serratia fonticola AU-AP2C); assay: SEC-MALS; Superdex 200 Increase 10/300 GL in storage buffer, 500-1000 ug protein, illuminated state (blue light 465 nm for 1 min before loading and during the whole run); miniDAWN MALS detector
[9] = target: DpLadC, LOV-activated diguanylate cyclase from Deinococcus peraridilitoris DSM 19664 (Deinococcus peraridilitoris DSM 19664); assay: SEC-MALS; Superdex 200 Increase 10/300 GL in storage buffer, 500-1000 ug protein, dark-adapted state (non-actinic light); miniDAWN MALS detector
[10] = target: DpLadC, LOV-activated diguanylate cyclase from Deinococcus peraridilitoris DSM 19664 (Deinococcus peraridilitoris DSM 19664); assay: SEC-MALS; Superdex 200 Increase 10/300 GL in storage buffer, 500-1000 ug protein, illuminated state (blue light 465 nm for 1 min before loading and during the whole run); miniDAWN MALS detector

With “MsLadC, LOV-activated diguanylate cyclase from Methylotenera sp. (enzyme)” the stoichiometry N [1] was 2, the stoichiometry N [2] was 2 and the stoichiometry N [3] was 2. For the same substance, the stoichiometry N [4] was 2.
“AoLadC, LOV-activated diguanylate cyclase from Aquella oligotrophica (enzyme)” showed a stoichiometry N [5] of 2 and a stoichiometry N [6] of 2.
With “SfLadC, LOV-activated diguanylate cyclase from Serratia fonticola AU-AP2C (enzyme)” the stoichiometry N [7] was 2 and the stoichiometry N [8] was 2.
Work on “DpLadC, LOV-activated diguanylate cyclase from Deinococcus peraridilitoris DSM 19664 (enzyme)” yielded a stoichiometry N [9] of 2 and a stoichiometry N [10] of 2.
